{"source": "patent US20230226096A1", "about": "(Orna Therapeutics, Inc., priority 2020, published 2023)", "molecules": {"B1": {"name": "Grusopivirus B (nucleic acid)", "DNA": "GCCATCCGTAGGTTCTGGTAAGGTTCCATCAACTGTTGGGGCGCTAGTTGCTATGACCGCATTCACGGACGGATGATTTATAGTATCACCCAATCCGGGCACAACTTCTTTAGCCACTTCTTCCACATTACTAAGGGCTCTCTTGCCGAGTTTCAACGTCTAGTCCACGACACGGACCTTCCTACTTTTCTATCTTCTTATTTTCTCTACTAAATTGGTATCTGGTACTGAAGATATGCGGATTGTGATTTTGTGCCTGTCTAAACTAACCCTATTCTAGGGTTAGGTGGGTACCATATACTAATGGTGAACAGGATTACCTATGTATCCATTAGTCCCTATGGATCTGGCGACCCACAAACTCATGTTCATAGAGAGGCTAAGCTGAGTGCTCGCCGAATAAGCATTGCTTCAGGTGCCGACTATTGTCTGGAAACCACTCAGTGATAGCTATAGGGGGGGGCCCCGTAGCATCTGCCTTACTGCCTGATAGGGTGGCGGCTGGTCCATGAACATGCAGTAACCAGTTGACTTGAC", "modifications": "Grusopivirus B"}, "B2": {"name": "Yancheng osbecks grenadier anchovy picornavirus (nucleic acid)", "DNA": "CCTTAGGGTCTGGAATGCGTCCTTTCTGGGCACTTCCACAATCCTAAGGTAATTTTCAACGCCAGCGATGGAGCGATATCCAAAGAACCTTTATGTTTTAGTTCGTCTTGTATGTTTATAAAATATAAAATTGGGATTAGCAACCCACAAAAACATTTTTGTTATTCTCACCACATGAGAGGGTGGTTAAACCTCTTCGTAACCTATCTTGCTTGATTGGCTACTTGGGCTAGATTTAGGACAACCTCTTTAGCAAGCCTAAATTACTCCTCGTACTTGCACCTGGTAACAGGCGTACCTGGAGGTTACGGTGGCGCTAACTTGGACTTCTCGTTAATTCGTGCAAGTTTAAATGATGCCTATTTTGAATACAAGAAAGTATGATAGTAACTTAGGGCGTGAAGTTCCGCTTAACATAAGGCAGTATAAGTACTAAGATAAGGTGTAAGACCTACCTTAATAACTGTTGTCTTTTCTCATGGTCTTTCCGTGGGAGCCCTTGCTAGGGGTAAAGTTAAGTATTCTCAAATAATTTTTCATTCAAACTCTTTCTCTCTGTTTT"}, "B3": {"name": "Tremovirus B (nucleic acid)", "DNA": "TTCAAATGGCCCCTGGGTTGATACCCAGTGGTCATTTGGACACTTTGGTAAGGAGGTGTAATTATCCTTCCCATGTGGAACCTAGTGCTTAGGTTTACTTTATATGTTCTTTGTTTGTCCTTTGTACTTTCTATCGGGCAATCTTGTTGTTCAATACAATATGTATTTGAACTGCCTAAGATAAATTCAGTTTTCAACCAACCCCTCTCTTGGGGTTGTGTCTTTCTTTCTTTCTTATATCCTCTTAAGCTGACTTACTTGCTAATCCGACTCCTCGTCAACGGGAGGGTAAAGCAGTATCACTAGGGTATTGTGATGTAGGAGAAAAAGTAAGTAGAGATAGTGCATGTAACGAAAGTGACTTGGTACTTTAAACTCTCTTAATCCCAAAGTGTGGTATTGGTCATGTTGGAGTAGGCTACGGGTGAAACTCCTTCACATTTAGTAATGTGTTCACACGCTAACGCTACGGTAGATGACAGACTAGGTCTTATTCTCAACGTAGGGGGACGGGTGTATGTTCATGATTAGCCACATATTAAGGTTTTGAGGGGCTGAGTCATATAAGTATGTGCATTAATTTCTGGTACTGGTCCCTGGGGACTGGCCCTTTTCTAGGTTGATTTTAGTTTCCCCAATTTTTAAAAACTAATGAGATTTACGAC", "modifications": "Tremovirus B"}, "B4": {"name": "Hepatovirus G1 (nucleic acid, listed as Hepatovirus sp.)", "DNA": "GCAAGGGGTGGTTTTAACCTTGCACGCGTTTACCGTGCGTTAACGGTTTTCCATGTTTGTATGTCTTGTTTGTATTATGTGTTTTGTAAATATTAATTCCTGCAGGTTCAGGGTTCTTTAATCATGTTGGGCTGTACCCACACTCAACTTTTGGCCATAAGTGAGTTTCTTAACGAACCTTTTAACACAGGATGTTATTAGGGCCCAATATTTTCCCTGAGGCCTTCTTTGGCCTCTATTTTTTCCCCTTTTCTATCTCCTTGTATTCCGGGCTCACGTGATGCCAATGGACTGACCCATGCGCCCGTGGGGGTTAACTACTGGAGTAGCCAGTAGCTGTAGGTGCTAAAAGTCACGTACGTGTAAGACTGGACGAGACCTCTCAGCTATAACTGAAAGTAGTAAGTATGTCTGAACTTCTTGAAGGGGTAGGCTACGGGTGAAACCCCTTAGGTTAATACTCATATTGAGAGATACCTCTGATAGGTGAAGGTTTCCGGTAGAGGTGAGTTTAACGACAAAGCCTCTCAACGGATGTGGGCCCACCTCATCAGCAAGATGCTTTCATACCCAATACCGTAGGGGCTGGGTTGTTGAGTTCAGTCCCAAGCGTCCCTCCCGCAAGGTTGTAGGGGTACTCAGGGGCATTTAGGTTTCCACAATTAAACAAATACA"}, "B5": {"name": "Falcovirus A1 (nucleic acid)", "DNA": "TAAAAGGGGACGCGGTGTGGCAGCTTTGGCTGTCATGCCGTGTTCTCCTTTTACCCCAAGGACTAGCCTTGGGGGTTTTCCAAATTCCTTTCCCTGTAGGCTTTACTTCTCTTTATCTATCTTTTCTGTAACTAAGTTTTGCCTATTCTAAAAATATTTTAGAATGTGTTTGGATGTAACTAAGTTTGTGCCTGCCCTAAAAATATTTTAGGGCTTGTTTGGATAACCTCGTCCCTTGTGTTCAGTGCCGCACAATTTGCTAGGCACTGTTCACTTCCTTTGTTTGTCCATTATGTATGCTAAGGTATGAATTCCATCATATGCTTAGCCTCTACATGCATAATCTTATTCCCTCCCTGGTGCAAACTACGCCCCCAACATATGTGAATCTTTTAAGCATATTCCTGACCCCACACATATATATGTGTTCTCGTGAATTCCCCCACCGTGAGGTGGTCACTTGGACGTGGTGTGTGTCACACAGCATATATATGATGCAGGATGTTGTTTTTAAGATAAGCATATGTCCTTAGTGCTTTGCATCATTTCCTCCACACCCCGTGAATGCGGCTAATCTTAACCCTGTTGGGTCCGTGGGTAAACCAACCCATTAACCACAGGACGGAACCGACTACTTTCGGGAGTGTGTGTTTCTTTTTCTTCTTTTGTCACT"}, "B6": {"name": "Didelphis aurita HAV (nucleic acid)", "DNA": "TCTTTGGTCTGGGGAACTAAAATACCAGACCCGCGTTTGCCTAGCGATATAGGCTTTAATTGTTGTTTGTCATTGTGCGTTTGATATGTGTTTTAATGTAAATAATAATTCTAGCAGGTTCTAGTTCTTGATCATGTCCTCTTTAAGGCACTCATTTCAACTTGCTATCTTTCTTTTCTTCCTTGGTTCTCCCTACACCAAATGCACTGGCCGCTGCGCCCGGCGGGGTCAACCACATGATTAGCATGTGGCTGTAGGTGTTGAAGGCTGGGACATGAACATCAATGGAATAGTGCGCATGCTTACTGGGGTCCATTGAAGTAGTGGGATCTTTCTATTGGGGTAGGCTACGGGTGAAACCCCTTAGGTTAATACTCATATTGAGAGATACCTTGGATAGGTTAACTGTGCTGGATATGGTTGAGTTTAACGACAAAAAGCCATCAACAGCTGTGGACAGAACCTCATCCTTAGATTGCTCACTATGGATATGTGCTCTGGGCGTGTTTCTTGCATGATGGCCATTGGTCAATTCATGCCTGGGCCAATGTAGGATTAGCCTTAAATTACTTTTTAAAAGTAGCCTCATTTAGCTGGACTAATGGTGGGGCGTATGATCCTGCATTTGGCCTCTGGGGTAATCAGGGGCATTTAGGTTTCCACATAATAGCAAAT", "modifications": "Hepatovirus A"}, "B7": {"name": "Turkey Gallivirus M176 (nucleic acid, listed as Gallivirus sp.)", "DNA": "CCACTCGCACTTCCTGGATAGTGCGTTAGATATGCCCGACATATCGCTTCCAGGACCAAAGCCCCCCTTTTCTCTTTCCCAACCAGCTTCGCCACTCAAGCTGTAATTCCATGTCCGGTCTTTCCGGCCTTAGTATCATGGAAATGTGGTCGTGCTCAAATGAAATTGAGTTGACATTGATCAATGAAAGTTGCACTGAACTTTGCTAAACTGGCTAGCGCCACCTGGTGTGTGCCGTTGGTCTCCTCACATGGTAACATGTGCCAACGGGCCCGAAAGGCTAGTGGGCAATTACCGCTCCAAGGGAGGGGTACCCACCCCGACCTGAACAGCGGTAATGAAGCTCACCTCCCAGGCTCTGACCCCGAGAAGTTTAGTTATTTAGTAGGTGTAATTAGTACTTGTGATTGGTCAATTTGATAGTAGTTTGAAACGTTATGGATGAATGAGTAGACCCCCTGAAGGTACCCCATTACATGGGATCTGATCAGGGCCACATTCTGCGTGTCTCCCCGCACTTGTGGTTAAAACCATGAAAGTTCATCCCAAACAATCTTTTCCTCTTCTTTTTCTTTTAGTGGTGACAACCTACTGGATTGGTGATTACCAATCTGTACTAGTGTTGTATTAAGACTTGTTGTGTGGAGAAAATGGACTCTTTCAAGAAGATTTTTG"}, "B8": {"name": "Hepatovirus H2 (nucleic acid, listed as Hepatovirus sp.)", "DNA": "GTCATGTTTCTCTTTAAGAACACTCAATTTTGGCCATAAGTGAGACTCTTGTCGAACCTTTCATGTCAGGACCATGTTAGGGCCATTATCCTTTTCCCTGGGGCATTCTTCTTGCCCCTGTTTCATCTTTCTATCATCTTTCTTCCGGGCTCTCACAATGCCAATGGAGCGACCGATGCGCACGTCGGGGTTAACCCATGGATTAGCCATGGGCTGTAGCTGCTAAAAGTTGTGACTCCTGAAGCATACTATCAATGGTAGTAGATGTAACTGAAACACTGAAGCTTCTCTGATCTTGAAAGAAGGGTAGGCTACGGGTGAAACCCTTCAGGTTAATACTCATATTGAGAGATACCTTTGGTAGGTTAACGTTGGCGGATAATGTTGAGTTTAACGACAATAAACATTCAACGCCTGTGGGCGAACCTCACCAATTTCATGCTTTGAAGTGAATGTGCGTAGGGTCTCTATCGGAGATGCTATGTGGATGGTGCCCTCCCTGGAAACAGGTTGTAGGGGTACTCAGGTGCACTTAGGTTTCCACATTTTAAAGATTTTTC"}, "B9": {"name": "Hepatovirus D (nucleic acid)", "DNA": "CTTTGGATGCCCATAGTGCGGGGGTATAAATACCGCACTCCCTTTAGCTGTTCCGAGGGTATCGGAACCTATATGTTTGTTTTCTGTCTGTCTGTCAGCTTTATGTGTGCTCGTCCCCTTTAGGGCACTCATTTCAGCTTGCTTTCATTCTTTTCTTCCCCGGTTCTCACCTTACCGGAGGCACTGGCCGTTGCGCCCGGCGGGGTCAACCTAGTGATTAGCACTAGGCTGTAGGTGTCTAAAGTGGTGACATTAAGACTTGGTAACTGATTTCAGCACTGTTAACTGATGTTGGGGATGACTTGATTGATCTTCTGGAAGGGGTAGGCTACGGGTGAAACCCCTTATCTTAATACCACTATGTAGAGATAGATTCAGTAGGTTAAGGGCAGTGGATAAGGTTGAGTTCATTTTGGACAATAAACCTTCAACACTGGTGGACCCAATCTCACTGACCAGATGCTTTCTTGACTGATCCTTCAGAGGGGTGATTCTTCTGAATAGGTTGCCTTGACACTGATGCCTGAGACCCATTGGGTCGGGCCTTAAATCATGGAACTCCACTGGACTTTCATGGCCTAGCTTCTGCCTTAGACAGACTCTGGGGCCCCACGACCCTCTGGGCCCTTCGGGGTACTCAGGGGCATTTAGGTTTTTCCACAATTAAAAGAGTTA", "modifications": "Hepatovirus D"}}}
{"test_system": "HEK293 cells", "assay_type": "cell-based, human", "conditions": "luminescence from secreted Gluc in supernatant 24 hours after transfection of HEK293 cells; circular RNA encoding Gluc with the named IRES (UTR truncated to 675 nt)"}
{"molecule": "B1", "Expression": "2.12E+05"}
{"molecule": "B2", "Expression": "1.57E+06"}
{"molecule": "B3", "Expression": "1.31E+05"}
{"molecule": "B4", "Expression": "1.41E+05"}
{"molecule": "B5", "Expression": "1.48E+05"}
{"molecule": "B6", "Expression": "1.38E+05"}
{"molecule": "B7", "Expression": "4.37E+05"}
{"molecule": "B8", "Expression": "1.08E+05"}
{"molecule": "B9", "Expression": "1.47E+06"}
